{
  "source": "patent US10369187B2",
  "about": "“Peptide regulators of JNK family kinases” (Vanderbilt University, priority 2017, dated 2019)",
  "key": {"MKK7": {"molecular_target": "T1, MKK7 (Homo sapiens, UniProt O14733)", "T1 sequence (O14733 1-419)": "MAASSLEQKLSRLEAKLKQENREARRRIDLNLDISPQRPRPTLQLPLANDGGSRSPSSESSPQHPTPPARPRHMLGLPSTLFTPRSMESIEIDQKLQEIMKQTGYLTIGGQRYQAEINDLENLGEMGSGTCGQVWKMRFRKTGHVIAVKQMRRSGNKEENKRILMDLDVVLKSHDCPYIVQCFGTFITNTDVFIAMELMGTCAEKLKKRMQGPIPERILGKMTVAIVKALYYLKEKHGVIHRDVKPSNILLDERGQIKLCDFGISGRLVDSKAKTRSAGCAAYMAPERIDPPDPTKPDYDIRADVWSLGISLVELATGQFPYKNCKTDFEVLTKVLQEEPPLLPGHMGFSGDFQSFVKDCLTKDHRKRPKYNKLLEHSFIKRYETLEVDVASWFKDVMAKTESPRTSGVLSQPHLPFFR", "assay": "MBP pull-down of purified MKK7", "assay_type": "binding", "conditions": "purified GST-MKK7; peptide as MBP-fusion immobilized on amylose", "method": "T1A was expressed in E. coli as an MBP-fusion and purified it on an amylose column^23. The ability of purified GST-MKK4 or GST-MKK7 (FIG. 1A) to bind MBP-T1A immobilized on an amylose column was tested in an in vitro pull-down assay, where MBP and MBP-arrestin-3 served as negative and positive controls, respectively (FIG. 1B). MBP-T1A, but not control MBP, effectively retained both kinases (FIG. 1B). […] Next, it was tested whether T1A binds the uppermost kinase in the cascade, ASK1. Because ASK1 is not available in purified form, HA-tagged ASK1 and YFP-tagged T1A (using YFP as a control) were co-expressed in COS7 cells, lysed the cells, and immunoprecipitated YFP constructs with anti-GFP antibody (FIG. 1C).\nTo make MBP-fusions containing arrestin-2/3 elements, the cDNAs encoding arrestin fragments were subcloned into pMal-p2T (generous gift from Dr. Keiji Tanaka, Tokyo Institute of Medical Science) between Eco RI and Xho I sites in frame with MBP, as described^23. MBP-Arr3 (full-length arrestin-3) was created by subcloning the corresponding cDNA into pMal-p2T between Eco RI and Not I sites^23. All MBP-arrestin-3 fusion proteins contained the same […] (SEQ ID NO:29) linker between MBP and arrestin-3 or its fragments. […] Eluates were analyzed by SDS-PAGE and Western blotting."}, "MKK4-JNK3 module": {"tested_on": "MKK4-JNK3 module", "assay": "JNK3 phosphorylation by co-expressed MKK4 in cells", "assay_type": "cell-based, African green monkey", "conditions": "YFP-T1A co-expressed with MKK4 in COS7 cells", "method": "To test whether T1A can promote JNK3 phosphorylation by MKKs in cells, MKK4 or MKK7 was co-expressed with YFP-T1A in COS7 cells, using YFP and full-length arrestin-3 as negative and positive controls, respectively (FIG. 2C).\nCOS-7 African green monkey cells were maintained in DMEM supplemented with 10% heat-inactivated FBS (Invitrogen), penicillin, and streptomycin at 37° C. in a humidified incubator with 5% CO2. The cells were plated at 80-90% confluence and transfected using Lipofectamine 2000 (Invitrogen) according to the manufacturer's instructions. Cells were used 48 h post-transfection and serum-starved overnight before experiments.\nCOS-7 cells were incubated with phosphatase inhibitors (50 mM NaF and 10 mM Na3VO4) in serum-free medium for 15 min at 37° C.; washed with cold PBS; and lysed with SDS lysis buffer containing 1% SDS, 10 mM Tris (pH7.4), 10 mM NaF, 100 μM Na3VO4, 2 mM EDTA, 2 mM benzamidine and 1 mM PMSF. JNKs activity was assayed by Western blotting using an antibody specific for phosphorylated JNK to detect phosphorylated (active) JNKs^17,20,23. […] Protein was measured using the Bio-Rad Coomassie Blue assay. […] Protein bands were detected by enhanced chemiluminescence (ECL, Pierce), followed by exposure to x-ray film. To quantify phospho-JNKs, serial dilutions of anisomycin (1 μg/ml)-stimulated HEK-A cell lysates were used to ensure that all samples were in linear range. […]"}},
  "data": [
    {"substance": "MGDK-GTRVFKKASPNGKLTVYLGK (MGDKGTRVFKKASPNGKLTVYLGK; N-terminal MGDK; bovine) [B1A, homologous N-terminal peptide from arrestin-2, negative control]", "values": [
      {"measurement": "binding of MKK7 in MBP pull-down", "setting": "MKK7", "value": "less robust interaction"}
    ]},
    {"substance": "MGEKPGTRVFKKSSPNCKLTVYLGK (bovine) [T1A, first 25 residues of arrestin-3]", "values": [
      {"measurement": "binding of MKK7 in MBP pull-down", "setting": "MKK7", "value": "binds both MKKs"},
      {"measurement": "JNK3 phosphorylation by MKK4 in cells", "setting": "MKK4-JNK3 module", "value": "necessary and sufficient to promote the signaling"}
    ]}
  ]
}
